Assay results reported in doi:10.1101/2025.11.06.685569 (bioRxiv, 2025).
Each block holds one binder with its values, some of them ahead of it.

B1: Myc-tagged Atg23 (natural protein, S. cerevisiae, UniProt Q06671 1-453, looked up)
chain: MELNQVLEKKEQILQYLGTLVGLHEKALSDVNSASQVTSIRKDITICLNDLCRINDLLVSHDGLLKREIGSLLRDKQELLELNEREQLLWKERKSWHIKQETDAAPADYVIDKDAIITISSHHRTSLNKYIESVGAENTILSNTDDSDAMIEEVQNAESSADQMIRNYKLLQLSHKQAKSEIIRLETLLRDFKKDNKFIEEELKRQSGRIRSEMGNIDFHLSKIEESKHQLMKRIGFESPLTQEKSLSEKIFNLRLSSADEDYNERQTINMKNFVHMKDLIELKIEDLQEQLMRNKNESSTVLTQRELWLDCQKKVGDLESKLITKLRSSSNSKIPPNEMSEMINSTIQYLNNLLDSSDEKLTTTLISNERDVLSKACEELHSESTTAQDGSSALPSKPIDIHKSHKGSNASSNLKQPSTPSFLVASKSPPKIGISESVVNANKNDAISKKVE
B2: untagged Atg23 (natural protein, S. cerevisiae, UniProt Q06671 1-453, looked up)
chain: MELNQVLEKKEQILQYLGTLVGLHEKALSDVNSASQVTSIRKDITICLNDLCRINDLLVSHDGLLKREIGSLLRDKQELLELNEREQLLWKERKSWHIKQETDAAPADYVIDKDAIITISSHHRTSLNKYIESVGAENTILSNTDDSDAMIEEVQNAESSADQMIRNYKLLQLSHKQAKSEIIRLETLLRDFKKDNKFIEEELKRQSGRIRSEMGNIDFHLSKIEESKHQLMKRIGFESPLTQEKSLSEKIFNLRLSSADEDYNERQTINMKNFVHMKDLIELKIEDLQEQLMRNKNESSTVLTQRELWLDCQKKVGDLESKLITKLRSSSNSKIPPNEMSEMINSTIQYLNNLLDSSDEKLTTTLISNERDVLSKACEELHSESTTAQDGSSALPSKPIDIHKSHKGSNASSNLKQPSTPSFLVASKSPPKIGISESVVNANKNDAISKKVE
B5: FLAG-tagged Atg9^CTR (domain or fragment, S. cerevisiae, UniProt Q12142 758-997, looked up)
chain: ENSEYVDGLGYVCKYAMFNMKNIDGEDTHSMDEDSLTKKIAVNGSHTLNSKRRSKFTAEDHSDKDLANNKMLQSYVYFMDDYSNSENLTGKYQLPAKKGYPNNEGDSFLNNKYSWRKQFQPGQKPELFRIGKHALGPGHNISPAIYSTRNPGKNWDNNNNGDDIKNGTNNATAKNDDNNGNNDHEYVLTESFLDSGAFPNHDVIDHNKMLNSNYNGNGILNKGGVLGLVKEYYKKSDVGR
B8: FLAG-tagged Atg9^NTR (domain or fragment, S. cerevisiae, UniProt Q12142 1-318, looked up)
chain: MERDEYQLPNSHGKNTFLSRIFGLQSDEVNPSLNSQEMSNFPLPDIERGSSLLHSTNDSREDVDENDLRVPESDQGTSTEEEDEVDEEQVQAYAPQISDGLDGDHQLNSVTSKENVLETEKSNLERLVEGSTDDSVPKVGQLSSEEEEDNEFINNDGFDDDTPLFQKSKIHEFSSKKSNTIEDGKRPLFFRHILQNNRPQRDTQKLFTSSNAIHHDKDKSANNGPRNINGNQKHGTKYFGSATQPRFTGSPLNNTNRFTKLFPLRKPNLLSNISVLNNTPEDRINTLSVKERALWKWANVENLDIFLQDVYNYYLGNG

Key:
[1] = target: the molecule itself; test: mass photometry
[2] = target: B8; test: ITC
[3] = target: B5; test: ITC
[4] = target: B1; test: pull-down
[5] = target: B2; test: ITC
[6] = target: T1, Atg23^Y16A_K42A_D43A_E380A mutant (S. cerevisiae, UniProt Q06671 1-453, Y16A | K42A | D43A | E380A); test: pull-down
T1 sequence (looked up): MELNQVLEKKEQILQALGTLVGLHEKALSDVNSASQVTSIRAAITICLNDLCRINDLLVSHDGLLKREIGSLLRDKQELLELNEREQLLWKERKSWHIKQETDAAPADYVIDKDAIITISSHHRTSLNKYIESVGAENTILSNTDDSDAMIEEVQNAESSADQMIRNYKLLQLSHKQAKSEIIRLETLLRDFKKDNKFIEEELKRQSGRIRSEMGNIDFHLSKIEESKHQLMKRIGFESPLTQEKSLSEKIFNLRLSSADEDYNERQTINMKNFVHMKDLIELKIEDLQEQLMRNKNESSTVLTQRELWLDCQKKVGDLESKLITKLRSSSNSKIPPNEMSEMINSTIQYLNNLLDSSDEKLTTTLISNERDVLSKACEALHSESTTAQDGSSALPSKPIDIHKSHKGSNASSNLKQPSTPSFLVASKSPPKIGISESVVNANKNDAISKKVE

[7] = target: T2, Atg23 (no tag named in the legend) (S. cerevisiae, UniProt Q06671 1-453); test: pull-down
T2 sequence (looked up): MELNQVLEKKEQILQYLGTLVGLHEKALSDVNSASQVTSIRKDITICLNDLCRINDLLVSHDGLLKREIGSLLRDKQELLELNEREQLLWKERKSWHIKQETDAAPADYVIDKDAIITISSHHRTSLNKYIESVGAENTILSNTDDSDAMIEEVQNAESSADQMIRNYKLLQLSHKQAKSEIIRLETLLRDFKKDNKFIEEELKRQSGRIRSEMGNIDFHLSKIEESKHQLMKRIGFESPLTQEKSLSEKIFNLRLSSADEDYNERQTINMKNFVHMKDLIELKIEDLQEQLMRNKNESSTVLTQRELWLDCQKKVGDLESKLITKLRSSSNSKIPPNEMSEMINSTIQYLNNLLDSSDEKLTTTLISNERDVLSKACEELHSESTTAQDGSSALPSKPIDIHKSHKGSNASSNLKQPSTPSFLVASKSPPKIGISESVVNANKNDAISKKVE

[8] = target: T3, FLAG-tagged Atg23 (S. cerevisiae, UniProt Q06671 1-453); test: pull-down
T3 sequence (looked up): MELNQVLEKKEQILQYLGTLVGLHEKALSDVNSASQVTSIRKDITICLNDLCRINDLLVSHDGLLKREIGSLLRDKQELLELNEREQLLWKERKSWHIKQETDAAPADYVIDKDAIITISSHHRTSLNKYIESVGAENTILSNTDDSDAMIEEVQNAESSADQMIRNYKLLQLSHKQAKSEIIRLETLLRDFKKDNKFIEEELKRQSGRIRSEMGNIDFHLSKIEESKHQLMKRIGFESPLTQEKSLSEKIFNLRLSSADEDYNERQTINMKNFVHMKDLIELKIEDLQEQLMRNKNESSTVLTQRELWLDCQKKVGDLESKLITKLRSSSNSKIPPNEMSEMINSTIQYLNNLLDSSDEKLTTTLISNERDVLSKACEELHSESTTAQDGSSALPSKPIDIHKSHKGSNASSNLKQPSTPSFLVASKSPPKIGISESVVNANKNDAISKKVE

[9] = target: B5; test: pull-down

binding result [4]: binds
B3: FLAG-tagged Atg9^CTR_S948A_S969A (domain or fragment, S. cerevisiae, UniProt Q12142 758-997, looked up)
chain: ENSEYVDGLGYVCKYAMFNMKNIDGEDTHSMDEDSLTKKIAVNGSHTLNSKRRSKFTAEDHSDKDLANNKMLQSYVYFMDDYSNSENLTGKYQLPAKKGYPNNEGDSFLNNKYSWRKQFQPGQKPELFRIGKHALGPGHNISPAIYSTRNPGKNWDNNNNGDDIKNGTNNATAKNDDNNGNNDHEYVLTEAFLDSGAFPNHDVIDHNKMLNANYNGNGILNKGGVLGLVKEYYKKSDVGR

binding result [4]: binds
B4: FLAG-tagged Atg9^CTR_Y989F_Y990F (domain or fragment, S. cerevisiae, UniProt Q12142 758-997, looked up)
chain: ENSEYVDGLGYVCKYAMFNMKNIDGEDTHSMDEDSLTKKIAVNGSHTLNSKRRSKFTAEDHSDKDLANNKMLQSYVYFMDDYSNSENLTGKYQLPAKKGYPNNEGDSFLNNKYSWRKQFQPGQKPELFRIGKHALGPGHNISPAIYSTRNPGKNWDNNNNGDDIKNGTNNATAKNDDNNGNNDHEYVLTESFLDSGAFPNHDVIDHNKMLNSNYNGNGILNKGGVLGLVKEFFKKSDVGR

binding result [7]: binds
B6: FLAG-tagged Atg9^CTR_S948D_S969D (domain or fragment, S. cerevisiae, UniProt Q12142 758-997, looked up)
chain: ENSEYVDGLGYVCKYAMFNMKNIDGEDTHSMDEDSLTKKIAVNGSHTLNSKRRSKFTAEDHSDKDLANNKMLQSYVYFMDDYSNSENLTGKYQLPAKKGYPNNEGDSFLNNKYSWRKQFQPGQKPELFRIGKHALGPGHNISPAIYSTRNPGKNWDNNNNGDDIKNGTNNATAKNDDNNGNNDHEYVLTEDFLDSGAFPNHDVIDHNKMLNDNYNGNGILNKGGVLGLVKEYYKKSDVGR

binding result [8]: binds
B7: Myc-Atg9^CTR_939-997-StrepII^2x (domain or fragment, S. cerevisiae, UniProt Q12142 939-997, looked up)
chain: NDHEYVLTESFLDSGAFPNHDVIDHNKMLNSNYNGNGILNKGGVLGLVKEYYKKSDVGR

binding result [9]: binds
B9: SUMO*-Atg27^CTR-StrepII^2x (domain or fragment, S. cerevisiae, UniProt P46989 223-271, looked up)
chain: TRGGSFQDFRAEFIQRSTQFLTSLPEFCKEVVSRILGRSTAQRGGYSAV

The next lines start with the binder.

Binder: B1
stoichiometry N [1]: 2

Binder: B2
stoichiometry N [2]: ~1
stoichiometry N [3]: ~1

Binder: B5
Kd [5]: 0.54 ± 0.08 µM
binding result [6]: binds

Binder: B8
Kd [5]: 6.7 ± 1.2 µM
